# In patent US20210208163A1:
# pKd: −log10 of the molar value.
# Target: recombinant mouse integrin αvβ3 (R&D Systems, 7889-AV-050) (mouse) (UniProt P43406)
# Test: SPR, mutant ICOSL immobilised, αvβ3 as analyte, 0.2 mM Ca2+ and 0.1 mM Mg2+, steady-state affinity fit
# Chain of recombinant mouse integrin αvβ3 (R&D Systems, 7889-AV-050) (mouse) (P43406 31-988 limits assumed, chain 1 of 2): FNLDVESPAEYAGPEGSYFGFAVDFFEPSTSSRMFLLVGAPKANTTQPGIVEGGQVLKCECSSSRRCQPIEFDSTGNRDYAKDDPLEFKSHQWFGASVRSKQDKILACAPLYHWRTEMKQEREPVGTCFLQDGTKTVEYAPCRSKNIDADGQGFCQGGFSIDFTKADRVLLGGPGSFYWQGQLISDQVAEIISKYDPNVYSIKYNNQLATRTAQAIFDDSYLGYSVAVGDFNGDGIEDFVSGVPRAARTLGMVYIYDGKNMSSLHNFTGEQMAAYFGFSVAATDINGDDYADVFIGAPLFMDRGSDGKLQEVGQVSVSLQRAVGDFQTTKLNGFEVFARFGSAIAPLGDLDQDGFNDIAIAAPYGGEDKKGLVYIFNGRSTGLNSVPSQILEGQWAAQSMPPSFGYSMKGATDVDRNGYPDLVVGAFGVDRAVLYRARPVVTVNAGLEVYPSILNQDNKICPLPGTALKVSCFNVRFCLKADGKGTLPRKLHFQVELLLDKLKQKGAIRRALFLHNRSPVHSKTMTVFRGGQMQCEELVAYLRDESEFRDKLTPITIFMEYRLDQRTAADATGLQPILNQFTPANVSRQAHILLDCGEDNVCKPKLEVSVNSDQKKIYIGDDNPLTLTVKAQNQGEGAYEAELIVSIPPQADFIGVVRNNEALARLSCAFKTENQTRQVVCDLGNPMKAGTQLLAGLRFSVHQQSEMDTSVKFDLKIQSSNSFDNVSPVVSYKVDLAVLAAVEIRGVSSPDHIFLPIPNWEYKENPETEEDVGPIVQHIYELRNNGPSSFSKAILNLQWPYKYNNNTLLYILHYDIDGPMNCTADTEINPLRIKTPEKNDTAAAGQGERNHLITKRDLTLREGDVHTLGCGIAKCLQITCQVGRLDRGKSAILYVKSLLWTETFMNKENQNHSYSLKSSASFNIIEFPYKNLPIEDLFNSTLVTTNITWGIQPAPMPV
# Chain of recombinant mouse integrin αvβ3 (R&D Systems, 7889-AV-050) (mouse) (O54890 26-717 limits assumed, chain 2 of 2, further chain): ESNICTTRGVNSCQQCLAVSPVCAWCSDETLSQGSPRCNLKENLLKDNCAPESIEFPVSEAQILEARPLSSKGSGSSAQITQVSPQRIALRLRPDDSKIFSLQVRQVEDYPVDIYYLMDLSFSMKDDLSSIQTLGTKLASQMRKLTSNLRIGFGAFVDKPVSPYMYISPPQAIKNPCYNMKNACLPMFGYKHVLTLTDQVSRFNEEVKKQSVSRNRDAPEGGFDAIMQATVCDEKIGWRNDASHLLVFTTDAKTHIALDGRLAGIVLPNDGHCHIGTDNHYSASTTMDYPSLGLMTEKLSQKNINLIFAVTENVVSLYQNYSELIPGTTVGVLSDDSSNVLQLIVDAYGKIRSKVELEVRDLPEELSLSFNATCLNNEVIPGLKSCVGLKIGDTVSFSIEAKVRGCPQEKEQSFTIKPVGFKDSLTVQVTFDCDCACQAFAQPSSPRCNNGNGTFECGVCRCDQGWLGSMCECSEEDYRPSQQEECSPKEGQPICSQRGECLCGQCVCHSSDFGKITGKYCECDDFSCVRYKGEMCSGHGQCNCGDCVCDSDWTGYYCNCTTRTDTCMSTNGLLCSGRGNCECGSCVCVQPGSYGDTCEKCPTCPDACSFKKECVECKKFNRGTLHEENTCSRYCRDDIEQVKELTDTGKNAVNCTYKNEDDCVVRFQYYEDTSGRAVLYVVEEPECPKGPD
substance,measurement,value
RGD-mutated mouse ICOSL protein (RGD motif replaced with AAA) (from UniProt Q9JHJ8 44-322) (ligand),pKd,3.08
